We go through nine molecules from patent US20260176378A1 (DYAX, published 2026).

The target in one experiment is T1, human plasma kallikrein (human, UniProt P03952 20-390; P03952 391-638).
T1 construct: two disulfide-linked chains; NP_000883.2; also called pKal; hpKal
The experiment can be described thus: ELISA, biotinylated pKal signal over streptavidin background. (In an ELISA, binding on a coated surface is turned into a signal by an enzyme label.)

For experiment [1], the target named is T2, pKal catalytic domain Mutant 2 (human, UniProt P03952 391-638).
T2 construct: Pichia pastoris; construct limits derived as for the wild type domain; not shown: His tag fusion
The experiment can be described thus: equilibrium Ki,app. Here is the method:
Enzyme and inhibitor were pre-incubated for 2 hours at 30° C. in a 96-well plate by adding 10 μL of a 10× enzyme solution and 10 μL of 10× inhibitor solutions to 70 μL of reaction buffer. Reactions were initiated by the addition of 10 μL of a 10× concentrated stock of substrate, and were monitored at 30° C. in a fluorescence plate reader with the excitation and emission wavelengths set at 360 nm/460 nm, respectively. Kinetic data were acquired by the increase in fluorescence, and initial rates for each condition were plotted against the total inhibitor concentration. The data was fit to the following equation for tight binding inhibitors: […]

T1 sequence (P03952 20-390 limits assumed, chain 1 of 2): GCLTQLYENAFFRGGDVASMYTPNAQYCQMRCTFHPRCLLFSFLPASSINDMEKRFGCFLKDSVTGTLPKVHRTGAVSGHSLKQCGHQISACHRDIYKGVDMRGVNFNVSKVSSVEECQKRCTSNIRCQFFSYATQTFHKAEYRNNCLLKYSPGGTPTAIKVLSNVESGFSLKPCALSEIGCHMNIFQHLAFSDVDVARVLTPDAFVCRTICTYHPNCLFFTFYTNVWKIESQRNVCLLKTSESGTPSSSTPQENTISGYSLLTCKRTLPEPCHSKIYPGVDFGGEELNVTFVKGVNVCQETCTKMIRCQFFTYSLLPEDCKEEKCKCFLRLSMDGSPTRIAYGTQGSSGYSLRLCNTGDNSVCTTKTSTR
T1 sequence (P03952 391-638 limits assumed, chain 2 of 2): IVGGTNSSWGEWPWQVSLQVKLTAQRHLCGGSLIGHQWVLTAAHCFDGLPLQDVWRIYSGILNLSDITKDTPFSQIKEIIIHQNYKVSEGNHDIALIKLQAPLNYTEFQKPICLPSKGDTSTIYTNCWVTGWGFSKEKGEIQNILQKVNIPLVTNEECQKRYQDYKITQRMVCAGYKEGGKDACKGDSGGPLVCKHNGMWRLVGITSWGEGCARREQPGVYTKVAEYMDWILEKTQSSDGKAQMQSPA
T2 sequence (P03952 other isoform, or with tags, fused parts or gaps mutant): as the sequence (P03952 391-638 limits assumed, chain 2 of 2) above, with R161A, Q163A, Y165A, T168A, R170A counted along it

B1: M160-G12 (antibody, V domains shown)
VH: EVQLLESGGGLVQPGGSLRLSCAASGFTFSHYLMTWVRQAPGKGLEWVSYISPSGGHTIYADSVKGRFTISRDNSKNTLYLQMNSLRAEDTAVYYCARVARGIAARSRTSYFDYWGQGTLVTVSS
VL: DIQMTQSPSFLSASVGDRVTITCRASQGISSYLAWYQQKPGKAPKLLIYAASTLQSGVPSRFSGSGSGTEFTLTISSLQPEDFATYYCQQLNSYPLTFGGGTKVEIK
notes: phage-derived Fab; also called R84-D02
B1: in the experiment with human plasma kallikrein, the “ELISA (T/B)” value came to 38.3.

B2: M6-D09 (Fab, V domains shown)
VH: EVQLLESGGGLVQPGGSLRLSCAASGFTFSFYYMVWVRQAPGKGLEWVSVIYPSGGITVYADSVKGRFTISRDNSKNTLYLQMNSLRAEDTAVYYCARDKWAVMPPYYYYAMDVWGQGTTVTVSS
VL: DIQMTQSPSSLSASVGDRVTITCRASQSIRNYLNWYQQKPGKAPNLLIYAASTLQSGVPARFSGSGSGTDFTLTISSLQPEDFATYYCQQLSGYPHTFGQGTKLEIK
notes: also called M06-D09; 559A-M06-D09
For the molecule B2, the “fold change of Ki,app against the wild type catalytic domain” value in experiment [1] is ~5 fold. Moreover, in the experiment with human plasma kallikrein, the “ELISA (T/B)” value was found to be 39.9.

B3: M7-E07 (Fab, V domains shown)
VH: EVQLLESGGGLVQPGGSLRLSCAASGFTFSWYLMIWVRQAPGKGLEWVSYIYPSGGFTYYADSVKGRFTISRDNSKNTLYLQMNSLRAEDMAVYYCARTEGPLSWGYGMDVWGQGTTVTVSS
VL: not shown
On to B3, for which the “ELISA (T/B)” value in the experiment with human plasma kallikrein worked out at 45.7.

B4: M162-A04 (antibody, V domains shown)
VH: EVQLLESGGGLVQPGGSLRLSCAASGFTFSHYIMMWVRQAPGKGLEWVSGIYSSGGITVYADSVKGRFTISRDNSKNTLYLQMNSLRAEDTAVYYCAYRRTGIPRRDAFDIWGQGTMVTVSS
VL: DIQMTQSPSTLSASVGDRVTITCRASQSISSWLAWYQQKPGKAPNLLIYKASTLESGVPSRFSGSGSGTEFTLTISSLQPDDFATYYCQQYNTYWTFGQGTKVEIK
notes: phage-derived Fab; also called R84-H05; M162-A4
In the case of B4, in the experiment with human plasma kallikrein, the “ELISA (T/B)” value came out at 11.4.

B5: M10-F10 (Fab, V domains shown)
VH: EVQLLESGGGLVQPGGSLRLSCAASGFTFSFYNMNWVRQAPGKGLEWVSSISPSGGETNYADSVKGRFTISRDNSKNTLYLQMNSLRAEDTAVYYCARGGGAYRNNWWGGFDIWGLGTMVTVSS
VL: DIQMTQSPSSLSASVGDRVTITCRASQSISVYLNWYQHKPGKAPKLLIYGASNLQFGVPSRFSGSGYGTDFTLTISSLQPEDFATYHCQQTFSLFTFGGGTKVEIK
On to B5, for which the “ELISA (T/B)” value with human plasma kallikrein came to 39.2.

B6: M161-C11 (Fab, V domains shown)
VH: EVQLLESGGGLVQPGGSLRLSCAASGFTFSDYAMKWVRQAPGKGLEWVSSISSSGGVTQYADSVKGRFTISRDNSKNTLYLQMNSLRAEDTAVYYCAREEDYSSSWYSRRFDYYYGMDVWGQGTTVTVSS
VL: QSALTQPPSVSVSPGQTASITCSGDKLGDKYVSWYQQRPGQSPVLVIYQDTKRPSGIPERFSGSNSGNTATLTISGTQAVDEADYYCQAWDSSTYVFGGGTKVTVL
In the case of B6, in the experiment with human plasma kallikrein, the “ELISA (T/B)” value is 41.8.

B7: M152-A12 (Fab, V domains shown)
VH: EVQLLESGGGLVQPGGSLRLSCAASGFTFSPYFMGWVRQAPGKGLEWVSGIGPSGGSTTYADSVKGRFTISRDNSKNTLYLQMNSLRAEDTAVYYCAREGPPYSSGWYRGLRQYHFDYWGQGTLVTVSS
VL: DIQMTQSPSSLSASVGDRVTITCRASQSISSYLSWYQQRPGKAPNLLIYAASSLQSGVPSRFSGSGSGTDFTLTISSLQPEDFATYYCQQSISIPRTFGQGTKVEVK
On to B7, for which, in the experiment with human plasma kallikrein, the “ELISA (T/B)” value came out at 19.

B8: M146-E12 (Fab, V domains shown)
VH: EVQLLESGGGLVQPGGSLRLSCAASGFTFSRYIMHWVRQAPGKGLEWVSSISPSGGLTSYADSVKGRFTISRDNSKNTLYLQMNSLRAEDTAVYYCAREFENAYHYYYYGMDVWGQGTTVTVSS
VL: DIQMTQSPSSLSASVGDRVTITCRASGDIGNALGWYQQKPGKAPRLLISDASTLQSGVPLRFSGSGSGTEFTLTISSLQPEDFATYYCLQGYNYPRTFGQGTKLEIR
notes: claim 26 (viii) gives VL 265 and VH 266 instead
With B8, the “ELISA (T/B)” value with human plasma kallikrein is 49.6.

B9: M8-A09 (Fab, V domains shown)
VH: EVQLLESGGGLVQPGGSLRLSCAASGFTFSTYFMLWVRQAPGKGLEWVSSIYPSGGNTVYADSVKGRFTISRDNSKNTLYLQMNSLRAEDTAVYYCARAASPVRNYYYYGMDVWGQGTTVTVSS
VL: QCELTQPPSESVSPGQTANITCSGDKLGNKYAYWYQQKPGQSPVLVIYQDNNRPSGIPERFSGSNSGNTATLTISGTQAIDEANYYCQAWDSRTVVFGGGTKLTVL
Consider B9, for which the “ELISA (T/B)” value with human plasma kallikrein stood at 5.4.
